Experimental data taken from publication PMC10933270, “The eukaryotic-like characteristics of small GTPase, roadblock and TRAPPC3 proteins from Asgard archaea” (Communications Biology, 2024).
Each block holds one compound with its values, some of them ahead of it.

How the values were obtained:
[1] = molecular target: Thor-RB, predicted roadblock (RB) protein from Thor SMTZ1-45 (Candidatus Thorarchaeota archaeon SMTZ1-45); experiment: crystal structure; Thor-RB crystals in 100 mM sodium acetate trihydrate, pH 5.0, 200 mM LiCl, 16% wt/vol PEG 6000, 20 °C; molecular replacement with MglB (PDB 3T1S)
[2] = molecular target: T1, Thor-Rab (Candidatus Thorarchaeota archaeon SMTZ1-45, UniProt A0A135VL07); experiment: X-ray crystallography, co-crystal without Mg2+ ([…] Å) and soak with Mg2+ ([…] Å); details: co-crystal 10 mM GTPγS, one copy mixed GDP/GTPγS, second copy full GTPγS; soak of GDP crystal with GTPγS and MgCl2; pH 5.5; nucleotide-binding site
T1 construct: codon-optimized gene in pSY5, N-terminal His8 tag removed by HRV 3C; E. coli expression; naturally lacks the C-terminal cysteine extension; two molecules in the asymmetric unit
T1 sequence (A0A135VL07 1-182): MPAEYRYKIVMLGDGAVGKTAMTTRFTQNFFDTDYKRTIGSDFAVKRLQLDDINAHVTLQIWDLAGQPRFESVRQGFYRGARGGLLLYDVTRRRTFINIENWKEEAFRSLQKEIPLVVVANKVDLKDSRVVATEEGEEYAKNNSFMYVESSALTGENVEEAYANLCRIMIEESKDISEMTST

[3] = molecular target: T1, Thor-Rab; experiment: phosphate release assay (EnzChek), GTP hydrolysis; type: biochemical; details: 1 mM GTP, 2 mM MgCl2, 20 mM HEPES pH 7.5, 150 mM NaCl, 25 °C, 2 h; no GAP or GEF; heat-denatured control
[4] = molecular target: T2, Rab11B (Homo sapiens, UniProt Q15907); experiment: phosphate release assay (EnzChek), GTP hydrolysis; type: biochemical; details: 1 mM GTP, 2 mM MgCl2, 20 mM HEPES pH 7.5, 150 mM NaCl, 25 °C, 2 h; no GAP or GEF; heat-denatured control
T2 construct: codon-optimized gene in pSY5, N-terminal His8 tag with HRV 3C site (tag removed); E. coli expression
T2 sequence (Q15907 1-218): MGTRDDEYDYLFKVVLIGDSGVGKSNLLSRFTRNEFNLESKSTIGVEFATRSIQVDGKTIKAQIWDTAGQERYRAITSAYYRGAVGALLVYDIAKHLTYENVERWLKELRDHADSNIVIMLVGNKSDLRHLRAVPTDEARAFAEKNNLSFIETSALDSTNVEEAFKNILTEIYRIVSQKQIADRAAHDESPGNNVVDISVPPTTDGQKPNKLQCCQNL

[5] = molecular target: SMTZ1-45 Thor-TRAPPC3, TRAPPC3-like protein from Thor SMTZ1-45 (Candidatus Thorarchaeota archaeon SMTZ1-45); experiment: crystal structure; Thor-TRAPPC3 crystals in 100 mM HEPES, pH 7.5, 250 mM magnesium formate-dihydrate, 18% wt/vol PEG3350, 20 °C; molecular replacement with the AB25 Thor-TRAPPC3 model (7YH2)
[6] = molecular target: MKD1-RB, roadblock (RB) protein from Loki MKD1 (Candidatus Prometheoarchaeum syntrophicum strain MK-D1); experiment: crystal structure; MKD1-RB crystals in 100 mM MES, pH 6.0, 250 mM zinc acetate dihydrate, 6% wt/vol PEG 3000, 20 °C; solved using the Thor-RB structure
[7] = molecular target: Odin-RBLC7, truncated roadblock (RBLC7) protein from Odin LCB_4 (Odinarchaeota LCB_4); experiment: crystal structure; Odin-RBLC7 crystals in 200 mM MgSO4, 20% PEG 4000, 10% glycerol, 20 °C; molecular replacement with dynein DLRB1 (PDB 3L7H)

Compound: Nc1nc2c(ncn2[C@@H]2O[C@H](COP(=O)(O)OP(=O)(O)OP(O)(O)=S)[C@@H](O)[C@H]2O)c(=O)[nH]1 [GTP-γS]
X-ray crystallography, co-crystal without Mg2+ (1.75 Å) and soak with Mg2+ (1.95) [2]: full occupancy for GTP-γS in the second copy

Compound: Nc1nc2c(ncn2[C@@H]2O[C@H](COP(=O)(O)OP(=O)(O)OP(=O)(O)O)[C@@H](O)[C@H]2O)c(=O)[nH]1 [GTP]
phosphate release assay (EnzChek), GTP hydrolysis [3]: SMTZ1-45 Thor-Rab generated similar levels of phosphate in comparison to human Rab11B | phosphate release assay (EnzChek), GTP hydrolysis [4]: The GTPase activity of human Rab11B and SMTZ1-45 Thor-Rab were measured

Compound: SMTZ1-45 Thor-TRAPPC3, TRAPPC3-like protein from Thor SMTZ1-45 (natural protein)
stoichiometry N [5]: 2

The next lines start with the values.

stoichiometry N [1]: 2
Compound: Thor-RB, predicted roadblock (RB) protein from Thor SMTZ1-45 (natural protein)

stoichiometry N [6]: 2
Compound: MKD1-RB, roadblock (RB) protein from Loki MKD1 (natural protein)

stoichiometry N [7]: 2
Compound: Odin-RBLC7, truncated roadblock (RBLC7) protein from Odin LCB_4 (natural protein)
